In patent US20230331828A1 (published 2023):
Values joined by “and” are separate entries in the source; they are usually repeats but may differ in a detail not shown here. Equal entries are not always repeated.

How the values were obtained:
[1] = molecular target: T1, Aβ1-42 fibrils (human); assay: SPR (BIAcore T200); Aβ1-42 fibrils immobilized, Fab as analyte; global 1:1 fit; apparent KD
T1 construct: Aβ1-42 polypeptide, HFIP-treated, incubated in 10 mM HCl at 37 C for 24 h, pelleted fibrillar fraction, sonicated; Multimeric fibril; also called fibril Aβ42; fibrillar Aβ42
Method: (§1) Fibrils were immobilized on sensor chip CMS (GE Healthcare Life Sciences) via amine coupling to a level to ensure a maximum binding of analyte of approximately 100 RU. Various concentrations of antibodies or Fabs (ranging from 1 nM to 100 nM) were passed over the coupled ligand at 30 μL/min in running buffer (HBS+0.05% P-20, 1 mg/mL BSA) for 300 s association time and 1200 s dissociation time. Regeneration of the chip surface was accomplished by 2 short injections of 10 mM Glycine-HCl at pH 1.7. Data was blank-subtracted to both a sensor not containing ligand and 0 nM analyte concentration. Analysis was performed using a global 1:1 fit with BIAcore Insight Evaluation software (v2.0) with bulk refractive index set to zero RU.

[2] = molecular target: T1, Aβ1-42 fibrils; assay: SPR (BIAcore T200); Aβ1-42 fibrils immobilized, Fab as analyte; global 1:1 fit
Method: as §1

[3] = molecular target: T2, Aβ1-28 (human); assay: SPR (Biacore T200); antibody captured by anti-human Fc, Aβ1-28 as analyte; global 1:1 fit
T2 construct: Bought peptide (Bachem); also called Aß1-28 monomer; A131-28
Method: (§2) Determination of binding affinity of anti-Aß candidates to Aß₁₋₂₈ (Bachem, Torrance, CA) was performed using a Biacore T200. Anti-human Fc antibody was immobilized to a CM3 sensor chip (GE Healthcare Life Sciences) via amine coupling and used to capture Aß antibodies.
(§3) Various concentrations of Aß₁₋₂₈ (analyte, ranging from concentrations of 100 nM down to 0.39 nM, serial diluted 2-fold each dilution step) were passed over the captured ligand at 50 μl/min in running buffer (HBS+0.05% P-20, 1 mg/mL BSA) for 240 s association time and 900 s dissociation time. Data were blank subtracted to both an irrelevant sensor not containing ligand, and buffer runs containing 0 nM analyte concentration. Analysis was performed using a global 1:1 fit with Biacore Evaluation software (v3.0).

[4] = molecular target: T3, Aβ pathology (plaques) in human AD brain tissue (human, UniProt P05067 672-713); assay: IHC on frozen human AD brain sections, brain AD 11-97; % stained area against antibody concentration (0.03-9 µg/ml)
T3 construct: Native tissue deposits, heterogeneous; also called tissue Aβ pathology; Aβ plaques
Method: (§4) Tissue Sectioning and Fixation. The unfixed frozen brain tissue samples were embedded in Tissue-Tek OCT (Sakura Finetek) in cryomolds dipped in a mixture of 2-methylbutane and dry ice slurry (−60° C.) then stored at −80° C. until sectioning. Serial 10 μm thick cryosections were generated using a Leica 3050S cryostat. The sections were directly thaw-mounted on positively charged glass slides and were stored at −20° C. until use. Prior to immunohistochemistry IHC procedures, the slides were immersed in 10% neutral buffered formalin solution for 10 minutes at 4° C., rinsed in PBS, then incubated for an hour at 37° C. in a glucose oxidase solution (20 mM beta D(+) glucose, 2 mM sodium azide, and 2 units/mL glucose oxidase in 1×PBS). The slides were rinsed 3 times for 5 minutes in PBS before they were transferred onto staining racks for processing in an automated stainer.
(§5) Antibody biotinylation. The humanized IgG antibodies were biotinylated using a non-covalent method, by means of incubation with a biotin-conjugated goat anti-human monovalent fab fragment (Jackson ImmunoResearch) in a ratio of 1:4, for 1 hour at room temperature. Unbound excess Fab was absorbed by pre-incubation with human serum for an additional hour before use. The freshly prepared antibodies were then loaded into the stainer for immediate application to tissue sections.
(§6) Immunostaining. The staining was performed in an automated Leica Bond Rx Stainer (Leica Biosystems), using the Bond Research Kit (DS980, Leica Biosystems) and the avidin-biotin amplified immuno-peroxidase detection system. Each biotinylated anti-Aβ antibody, or a human IgG control, was applied to the sections, at specified concentrations, for one hour and the staining was visualized using the avidin-biotin amplification system (ABC Elite Standard, PK-6100; Vector Laboratories). Hematoxylin counter-staining of nuclei was subsequently applied to sections before dehydration in an ascending series of alcohols, clearing in xylene, cover-slipping, and air-drying.

[5] = molecular target: T3, Aβ pathology (plaques) in human AD …; assay: IHC on frozen human AD brain sections, brain AD 15-19; % stained area against antibody concentration (0.03-9 µg/ml)
Method: as §4, §5, §6

[6] = molecular target: T3, Aβ pathology (plaques) in human AD …; assay: IHC on frozen human AD brain sections, brain AD 14-11; % stained area against antibody concentration (0.03-9 µg/ml)
Method: as §4, §5, §6

[7] = molecular target: soluble Aβ oligomers (Example 8) (UniProt P05067 672-713, biotin on the biotinylated preparation and on one tenth of the 9:1 mixture (position not given)); assay: direct ELISA; plate coated with soluble Aβ oligomers, antibody titrated
Method: The samples were incubated for 2 hours at room temperature. Plates were washed 4 times with TBS. 0.1% tween 20. Goat anti-human (H+L) HRP (Jackson Immunoresearch, PA) was diluted 1/5000 in 0.1% BSA/PBS 0.1% tween 20, added at 100 μl/well and incubated 1 hour at room temperature. Plates were washed 4 times and o-phenylenediamine dihydrochloride tablets (ThermoFisher) were prepared as per manufacturer instructions. 100 μl was added per well and incubated for 15 minutes at room temperature. […] Curves and resulting EC₅₀ estimations represent nonlinear 3-parameter least-squares fit of data using GraphPad Prism software.

[8] = molecular target: T2, Aβ1-28; assay: SPR (Biacore T200); antibody captured by anti-human Fc, Aβ1-28 as analyte; global 1:1 fit; apparent KD
Method: as §2, §3

[9] = molecular target: T1, Aβ1-42 fibrils; assay: SPR (BIAcore T200); Aβ1-42 fibrils immobilized, antibody as analyte; global 1:1 fit
Method: (§7) Fibrils were immobilized on sensor chip CMS (GE Healthcare Life Sciences) via amine coupling to a level to ensure a maximum binding of analyte of approximately 50 RU. […] Regeneration of the chip surface was accomplished by 2 short injections of 10 mM Glycine-HCl pH 1.7. Data was blank subtracted to both a sensor not containing ligand and 0 nM analyte concentration. Analysis was performed using a global 1:1 fit with BIAcore Insight Evaluation software (v2.0) with bulk refractive index set to zero RU.

[10] = molecular target: T1, Aβ1-42 fibrils; assay: SPR (BIAcore T200); Aβ1-42 fibrils immobilized, antibody as analyte; global 1:1 fit; apparent KD (avidity)
Method: as §7

[11] = molecular target: T3, Aβ pathology (plaques) in human AD …; assay: IHC on frozen human AD brain sections, brain AD 13-75; % stained area against antibody concentration (0.03-9 µg/ml)
Method: as §4, §5, §6

[12] = molecular target: T1, Aβ1-42 fibrils; assay: competition ELISA; plate coated with fibril Aβ42; competitor hBP-biotin; IC50 of test divided by IC50 of hBP
Method: To generate fibrils, Aβ 1-42 polypeptides, previously treated with HFIP (hexafluoroisopropanol) and dried, were resuspended in DMSO to 5 mM, then further diluted to 100 uM with 10 mM HCl. Samples were incubated at 37° C. for 24 h, and then centrifuged to separate soluble and fibrillar species. The pellet was the resuspended in 1×D-PBS to the original volume and sonicated before use.
Plates were coated with 0.5 mg/ml of fibril Aβ 42 and blocked, e.g., with 1% BSA/PBS. […] 100 ul of GE Streptavidin HRP diluted 1/10,000 was then added and incubated for 30 minutes. Plates were then washed 6× with TTBS. Thermo Fisher o-phenylenediamine dihydrochloride (OPD) substrate was prepared fresh per manufacturers direction, and 100 ul per well was added. The reaction was incubated for 15 minutes and the reaction stopped with 50 ul 2N H₂SO₄.

T3 sequence (P05067 672-713): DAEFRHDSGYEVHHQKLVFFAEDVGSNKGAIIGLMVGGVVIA
T1 sequence (peptide, as listed by the source): as the sequence (P05067 672-713) above
T2 sequence (peptide, as listed by the source): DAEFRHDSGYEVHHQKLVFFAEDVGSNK
Sequence of soluble Aβ oligomers (Example 8) (P05067 672-713): as the sequence (P05067 672-713) above

Binder	Kd [1]	koff [2]	kon [2]	koff [3]	kon [3]	Area Under Curve [4]	Area Under Curve [5]	Area Under Curve [6]	EC50 [7]	Kd [8]	koff [9]	kon [9]	Kd [10]	Area Under Curve [11]	IC50 ratio (test:hBP) [12]
bapineuzumab Fab (Fab, V domains shown, also called hBP) VH: EVQLLESGGGLVQPGGSLRLSCAASGFTFSNYGMSWVRQAPGKGLEWVASIRSGGGRTYYSDNVKGRFTISRDNSKNTLYLQMNSLRAEDTAVYYCVRYDHYSGSSDYWGQGTLVTVSS VL: DVVMTQSPLSLPVTPGEPASISCKSSQSLLDSDGKTYLNWLLQKPGQSPQRLIYLVSKLDSGVPDRFSGSGSGTDFTLKISRVEAEDVGVYYCWQGTHFPRTFGQGTKVEIK	5.34 nM														
h2731 Fab (Fab, V domains shown) VH: EVQLLESGGGLVQPGGSLRLSCAASGFTFSNYGMSWVRQAPGKGLEWVASIRSGSGRTYYSDNVKGRFTISRDNSKNTLYLQMNSLRAEDTAVYYCVRYDHYSGSSDYWGQGTLVTVSS VL: DVVMTQSPLSLPVTLGEPASISCKSSQSLLDYDGKTYLNWLLQKPGQSPQRLIYRVTNRDTGVPDRFSGSGSGTDFTLKISRVEAEDVGVYYCWQGTHFPRSFGQGTKVEIK	2.24 nM	0.000289 s⁻¹	129000 M⁻¹ s⁻¹												
h2931 (antibody, V domains shown, also called PB-0576) VH: EVQLLESGGGLVQPGGSLRLSCAASGFTFSNFGMSWVRQAPGKGLEWVASVRSGSGRTYYSDNVKGRFTISRDNSKNTLYLQMNSLRAEDTAVYYCVRYDHYTGTSDYWGQGTLVTVSS VL: DVVMTQSPLSLPVTLGEPASISCKSSQSLLDYDGKTYLNWLLQKPGQSPQRLIYRVTNRDTGVPDRFSGSGSGTDFTLKISRVEAEDVGVYYCWQGTHFPRSFGQGTKVEIK				0.000412 s⁻¹	94700 M⁻¹ s⁻¹	47.7	44.8	134	0.023 µg/mL and 0.15 nM	4.35 nM	2.05e-05 s⁻¹	335000 M⁻¹ s⁻¹	0.0612 nM	139	0.59 ratio
h2726 (antibody, V domains shown, Humanized IgG mAb; Only the variable domains are tied to the construct; also called PB-0573) VH: EVQLLESGGGLVQPGGSLRLSCAASGFTFSNYGMSWVRQAPGKGLEWVASIRSGSGRTYYSDNVKGRFTISRDNSKNTLYLQMNSLRAEDTAVYYCVRYDHYSGSSDYWGQGTLVTVSS VL: DVVMTQSPLSLPVTPGEPASISCKSSQSLLDYDGKTYLNWLLQKPGQSPQRLIYKVSNRDSGVPDRFSGSGSGTDFTLKISRVEAEDVGVYYCWQGTHFPRTFGQGTKVEIK				0.000555 s⁻¹	92300 M⁻¹ s⁻¹	50.2	52.1	149		6.01 nM	2.12e-05 s⁻¹	393000 M⁻¹ s⁻¹	0.054 nM	149	0.68 ratio
h2931 Fab (Fab, V domains shown) VH: EVQLLESGGGLVQPGGSLRLSCAASGFTFSNFGMSWVRQAPGKGLEWVASVRSGSGRTYYSDNVKGRFTISRDNSKNTLYLQMNSLRAEDTAVYYCVRYDHYTGTSDYWGQGTLVTVSS VL: DVVMTQSPLSLPVTLGEPASISCKSSQSLLDYDGKTYLNWLLQKPGQSPQRLIYRVTNRDTGVPDRFSGSGSGTDFTLKISRVEAEDVGVYYCWQGTHFPRSFGQGTKVEIK	1.62 nM	0.000199 s⁻¹	123000 M⁻¹ s⁻¹												
h2831 (antibody, V domains shown, Humanized IgG mAb; also called PB-0575) VH: EVQLLESGGGLVQPGGSLRLSCAASGFTFSNFGMSWVRQAPGKGLEWVASVRSGSGRTYYSDNVKGRFTISRDNSKNTLYLQMNSLRAEDTAVYYCVRYDHYSGTSDYWGQGTLVTVSS VL: DVVMTQSPLSLPVTLGEPASISCKSSQSLLDYDGKTYLNWLLQKPGQSPQRLIYRVTNRDTGVPDRFSGSGSGTDFTLKISRVEAEDVGVYYCWQGTHFPRSFGQGTKVEIK				0.000508 s⁻¹	73100 M⁻¹ s⁻¹	49.2	49.7	149		6.95 nM	2.94e-05 s⁻¹	265000 M⁻¹ s⁻¹	0.111 nM	139	0.77 ratio
h2726 Fab (Fab, V domains shown) VH: EVQLLESGGGLVQPGGSLRLSCAASGFTFSNYGMSWVRQAPGKGLEWVASIRSGSGRTYYSDNVKGRFTISRDNSKNTLYLQMNSLRAEDTAVYYCVRYDHYSGSSDYWGQGTLVTVSS VL: DVVMTQSPLSLPVTPGEPASISCKSSQSLLDYDGKTYLNWLLQKPGQSPQRLIYKVSNRDSGVPDRFSGSGSGTDFTLKISRVEAEDVGVYYCWQGTHFPRTFGQGTKVEIK	2.01 nM	0.000259 s⁻¹	129000 M⁻¹ s⁻¹												
h2831 Fab (Fab, V domains shown) VH: EVQLLESGGGLVQPGGSLRLSCAASGFTFSNFGMSWVRQAPGKGLEWVASVRSGSGRTYYSDNVKGRFTISRDNSKNTLYLQMNSLRAEDTAVYYCVRYDHYSGTSDYWGQGTLVTVSS VL: DVVMTQSPLSLPVTLGEPASISCKSSQSLLDYDGKTYLNWLLQKPGQSPQRLIYRVTNRDTGVPDRFSGSGSGTDFTLKISRVEAEDVGVYYCWQGTHFPRSFGQGTKVEIK	2.31 nM	0.000248 s⁻¹	108000 M⁻¹ s⁻¹												
